The values that follow come from paper PMC2809091, “Dissociation of the Octameric Enolase from S. Pyogenes - One Interface Stabilizes Another” (PLoS ONE, 2010).

This data set deals with the molecule itself. Nature of the data set: AUC; sedimentation velocity, 35,000 rpm, 15°C; 2.7 µM enolase (subunits) in TME buffer (50 mM Tris/HCl, 1 mM Mg(OAc)2, 0.1 mM EDTA, pH 7.4) without NaClO4; c(s) analysis (SEDFIT), mass also from DLS radius and DCDT+; octamer.

B1: wild type octameric enolase from S. pyogenes (enzyme, UniProt P69949 1-435, looked up)
chain: MSIITDVYAREVLDSRGNPTLEVEVYTESGAFGRGMVPSGASTGEHEAVELRDGDKSRYLGLGTQKAVDNVNNIIAEAIIGYDVRDQQAIDRAMIALDGTPNKGKLGANAILGVSIAVARAAADYLEVPLYTYLGGFNTKVLPTPMMNIINGGSHSDAPIAFQEFMIMPVGAPTFKEGLRWGAEVFHALKKILKERGLVTAVGDEGGFAPKFEGTEDGVETILKAIEAAGYEAGENGIMIGFDCASSEFYDKERKVYDYTKFEGEGAAVRTSAEQVDYLEELVNKYPIITIEDGMDENDWDGWKVLTERLGKRVQLVGDDFFVTNTEYLARGIKENAANSILIKVNQIGTLTETFEAIEMAKEAGYTAVVSHRSGETEDSTIADIAVATNAGQIKTGSLSRTDRIAKYNQLLRIEDQLGEVAQYKGIKSFYNLKK
notes: enolase (EC 4.2.1.11) of Streptococcus pyogenes; no removal of the His tag is described; also called wild type enolase; wild type enzyme; source: E. coli BL21(DE3), pET-14b, purified (Ni-NTA, dialysis, (NH4)2SO4 precipitation)
In the case of B1, the “stoichiometry N” value amounted to 8.
